What was measured:
[1] = target: CoV-2 RBD (N354D) (SARS-CoV-2) (UniProt P0DTC2); test: ELISA
[2] = target: CoV-2 RBD (N354D, D364Y) (SARS-CoV-2) (UniProt P0DTC2); test: ELISA
[3] = target: CoV-2 RBD (V367F) (SARS-CoV-2) (UniProt P0DTC2); test: ELISA
[4] = target: CoV-2 RBD (W436R) (SARS-CoV-2) (UniProt P0DTC2); test: ELISA
[5] = target: CoV-2 S (D614G) (SARS-CoV-2) (UniProt P0DTC2); test: ELISA
[6] = target: CoV-2 S (R683A, R685A) (SARS-CoV-2) (UniProt P0DTC2); test: ELISA
[7] = target: spike of SARS-CoV-2 variant B.1.1.7 (UK) on pseudotype virus (SARS-CoV-2) (UniProt P0DTC2); test: cell-based or functional assay
[8] = target: spike of SARS-CoV-2 variant B.1.351 (South Africa) on pseudotype virus (SARS-CoV-2) (UniProt P0DTC2); test: cell-based or functional assay
[9] = target: spike of SARS-CoV-2 variant B.1.427/B.1.429 (California) on pseudotype virus (SARS-CoV-2) (UniProt P0DTC2); test: cell-based or functional assay
[10] = target: spike of SARS-CoV-2 variant P.1 (Japanese/Brazilian) on pseudotype virus (SARS-CoV-2) (UniProt P0DTC2); test: cell-based or functional assay

Substance: IVIG (Gamunex; Grifols) (antibody)
- EC50 [1]: 1240 µg/mL
- EC50 [2]: 1320 µg/mL
- EC50 [3]: 1130 µg/mL
- EC50 [4]: 1240 µg/mL
- EC50 [5]: 1330 µg/mL
- EC50 [6]: 2840 µg/mL

Substance: rCIG (recombinant coronavirus-2 immune globulin; recombinant anti-coronavirus 19 hyperimmune gammaglobulin) (antibody)
- EC50 [1]: 0.07 µg/mL
- EC50 [2]: 0.08 µg/mL
- EC50 [3]: 0.07 µg/mL
- EC50 [4]: 0.07 µg/mL
- EC50 [5]: 0.05 µg/mL
- EC50 [6]: 0.09 µg/mL
- pseudotype virus neutralization IC50 relative to Wuhan-Hu-1 [7]: < 6 fold
- pseudotype virus neutralization IC50 relative to Wuhan-Hu-1 [8]: < 6 fold
- pseudotype virus neutralization IC50 relative to Wuhan-Hu-1 [9]: < 6 fold
- pseudotype virus neutralization IC50 relative to Wuhan-Hu-1 [10]: < 6 fold

— patent US20220041715A1
